# Assay results taken from paper PMC9846428, “EEPD1 promotes repair of oxidatively-stressed replication forks”.
# T1: EEPD1 (Homo sapiens) (UniProt Q7L9B9)
# T1 sequence: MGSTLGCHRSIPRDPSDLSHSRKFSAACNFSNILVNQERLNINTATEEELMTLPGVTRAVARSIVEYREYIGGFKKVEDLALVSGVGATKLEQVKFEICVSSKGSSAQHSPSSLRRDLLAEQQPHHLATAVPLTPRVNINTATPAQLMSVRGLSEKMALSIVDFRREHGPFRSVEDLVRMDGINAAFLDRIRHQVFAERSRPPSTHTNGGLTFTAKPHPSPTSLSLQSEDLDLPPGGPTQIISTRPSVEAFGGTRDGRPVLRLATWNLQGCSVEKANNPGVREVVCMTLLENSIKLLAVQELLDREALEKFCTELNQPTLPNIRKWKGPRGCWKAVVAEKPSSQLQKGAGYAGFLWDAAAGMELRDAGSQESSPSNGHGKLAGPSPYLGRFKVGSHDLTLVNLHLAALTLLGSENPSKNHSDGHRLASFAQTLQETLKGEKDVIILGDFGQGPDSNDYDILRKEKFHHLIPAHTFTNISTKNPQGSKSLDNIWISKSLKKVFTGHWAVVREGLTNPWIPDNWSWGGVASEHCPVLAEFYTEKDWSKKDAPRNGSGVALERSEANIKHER
# T2: EEPD1 (Homo sapiens, UniProt Q7L9B9 1-569)
# T2 sequence: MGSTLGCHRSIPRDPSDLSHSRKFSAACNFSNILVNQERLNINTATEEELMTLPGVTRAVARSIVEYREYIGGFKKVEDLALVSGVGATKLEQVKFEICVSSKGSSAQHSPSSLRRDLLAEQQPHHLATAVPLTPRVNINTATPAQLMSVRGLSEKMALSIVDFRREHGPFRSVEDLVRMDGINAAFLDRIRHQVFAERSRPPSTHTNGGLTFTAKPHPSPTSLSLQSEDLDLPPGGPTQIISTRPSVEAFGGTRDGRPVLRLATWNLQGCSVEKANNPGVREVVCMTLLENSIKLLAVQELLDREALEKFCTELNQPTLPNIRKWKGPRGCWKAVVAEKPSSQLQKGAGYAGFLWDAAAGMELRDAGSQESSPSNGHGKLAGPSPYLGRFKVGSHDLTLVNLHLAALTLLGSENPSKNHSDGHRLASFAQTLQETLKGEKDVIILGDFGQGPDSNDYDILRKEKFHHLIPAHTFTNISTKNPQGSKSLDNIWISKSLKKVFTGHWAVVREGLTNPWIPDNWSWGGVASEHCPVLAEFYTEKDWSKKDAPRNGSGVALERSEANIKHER
# Assays:
# APE1 (Homo sapiens) = APE1 (Homo sapiens) (UniProt P27695); experiment: fluorescence polarization; conditions: 5 nM DNA, no Mg2+ listed, THF at nt 15 of strand 1 (N), EMSA: 20 mM HEPES pH 7.9, 1 mM DTT, 30 mM NaCl, 0.03% NP-40, 10% glycerol, 1 ug poly(dI-dC), 20 min room temperature, FP: 10 mM HEPES pH 7.5, 50 mM KCl
# Chain of APE1 (Homo sapiens) (P27695 whole entry): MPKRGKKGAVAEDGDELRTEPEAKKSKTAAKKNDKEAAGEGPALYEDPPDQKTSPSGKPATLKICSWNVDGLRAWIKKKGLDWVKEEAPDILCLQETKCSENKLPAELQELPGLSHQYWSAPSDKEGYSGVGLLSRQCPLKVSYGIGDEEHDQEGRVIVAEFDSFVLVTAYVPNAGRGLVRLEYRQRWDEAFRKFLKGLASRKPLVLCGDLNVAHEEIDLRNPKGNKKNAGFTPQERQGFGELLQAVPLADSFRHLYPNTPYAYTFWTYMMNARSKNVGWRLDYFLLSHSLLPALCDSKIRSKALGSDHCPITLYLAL
# EEPD1 (Homo sapiens) = molecular target: T1, EEPD1 (Homo sapiens); experiment: fluorescence polarization; conditions: 5 nM DNA, no Mg2+ listed, THF at nt 15 of strand 1 (N), EMSA: 20 mM HEPES pH 7.9, 1 mM DTT, 30 mM NaCl, 0.03% NP-40, 10% glycerol, 1 ug poly(dI-dC), 20 min room temperature, FP: 10 mM HEPES pH 7.5, 50 mM KCl
# EEPD1 = molecular target: T2, EEPD1; experiment: EMSA; 1 ug poly(dI-dC); less than THF fork; EMSA: 20 mM HEPES pH 7.9, 1 mM DTT, 30 mM NaCl, 0.03% NP-40, 10% glycerol, 1 ug poly(dI-dC), 20 min room temperature; FP: 10 mM HEPES pH 7.5, 50 mM KCl, 5 nM DNA, 0-1000 nM protein; conditions: protein: recombinant; tags: FLAG; label: 32P 5'-end; fork 1:2 1:3 2:4
Molecule,Kd (APE1 (Homo sapiens)),Kd (EEPD1 (Homo sapiens)),binding result (EEPD1)
CATGCAGCTGATGCNTACAACACACTGTG / TTTTCCCCCCCCCCCGCATCAGCTGCATG / CACAGTGTGTTGTA / GGGGGGGGGGAAAA,21 nM,81 nM,
"fork DNA without abasic site (Oligos D, F, G, H) (structured_DNA) DNA 1: CATGCAGCTGATGCGTACAACACACTGTG DNA 2: TTTTCCCCCCCCCCCGCATCAGCTGCATG DNA 3: CACAGTGTGTTGTA DNA 4: GGGGGGGGGGAAAA",,,binds
